Usually stoichiometry N stands for a count of units in the complex or per binding partner. For orientation: pKd means −log10 of the Kd, conventionally taken in molar units.

In test [1] the target is RanBP10 CTLH-CRA domain (315–608, Δ382–529), wild type (mouse). The test is described as follows: SEC-MALS; CTLH-CRA domain complexes co-expressed in E. coli and purified as complexes; Superdex 75 10/300 GL; 20 mM tricine pH 8.0, 500 mM NaCl, 1 mM TCEP. A general note: Size exclusion chromatography separates by hydrodynamic size, large species first.
In test [2] the target is muskelin CTLH-CRA domain (205–735 Δ248–625) (UniProt Q99PV3). Briefly: ITC. The following applies: for other: -TΔS / dG / other: ΔH: read off a plot.
Test [3] has the same target. The test is described as follows: ITC. The following applies: 160 µM muskelin + 16 µM RanBP10.
Test [4] deals with RanBP10 CTLH-CRA domain (315–608, Δ382–529), wild type (mouse). Briefly: ITC; muskelin CTLH-CRA (160 μM, syringe) titrated into RanBP10 or Twa1 CTLH-CRA variants (16 μM, cell); 25°C; 20 mM tricine pH 8.0, 500 mM NaCl, 1 mM TCEP; one-site model. (In general: Isothermal titration calorimetry measures the heat released or taken up as one component is titrated into another.)
Test [5] addresses Maea CTLH-CRA domain (156-279) (mouse) (UniProt Q4VC33). The test is described as follows: SEC-MALS; purified CTLH-CRA domains alone or mixed (RanBP10 and Twa1 variants with Maea or muskelin), final concentration 250 μM, Superdex 75 10/300 GL.
For test [6], the target named is RanBP10 CTLH-CRA domain Q519G (mouse). The test is described as follows: SEC-MALS; RanBP10 Q519G (Q547G) dilution series; molar masses of 0.3 ml peak fractions against concentration, one-site binding fit; dimer to monomers.
A further test concerns the target muskelin (1–735) (rat) (UniProt Q99PV3). The test is described as follows: ITC; competition: RanBP9-Twa1 or RanBP10-Twa1 complex (160 μM) titrated into pre-formed Twa1_52-muskelin or Twa1_52-Wdr26 complex (16 μM); 25°C; competitive binding model with the parameters of the first titration.
The target in another test is Wdr26 (102–641) (mouse) (UniProt Q8C6G8). The description is as above.
The target of test [7] is RanBP10 CTLH-CRA domain (315–608, Δ382–529), wild type. The test is described as follows: ITC. The settings on record: 160 µM muskelin + 16 µM RanBP10.
Test [8] has the same target. The test is described as follows: ITC. The settings on record: 160 µM muskelin + 16 µM RanBP10. This is another data set of the same source.
[9] abbreviates: 160 µM muskelin + 16 µM RanBP10 mutants.
Setting [10] is: 160 µM muskelin + 16 µM RanBP10 mutants, parent: est. 4.1 kcal/mol.
[11] abbreviates: 160 µM muskelin + 16 µM RanBP10 mutants, parent: est. -11 kcal/mol.
Where [12] appears, read: 160 µM muskelin + 16 µM RanBP10 mutants, parent: est. -16 kcal/mol.
Setting [13] is: 160 µM muskelin + 16 µM Twa1 mutants.

pKd: −log10 of the molar value.

Maea CTLH-CRA domain (156-279) (mouse), sequence (Q4VC33 156-279): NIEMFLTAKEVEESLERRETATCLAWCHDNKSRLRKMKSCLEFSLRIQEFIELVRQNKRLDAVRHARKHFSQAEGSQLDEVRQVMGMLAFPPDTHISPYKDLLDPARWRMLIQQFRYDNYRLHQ
Wdr26 (102–641) (mouse), sequence (Q8C6G8 102-641): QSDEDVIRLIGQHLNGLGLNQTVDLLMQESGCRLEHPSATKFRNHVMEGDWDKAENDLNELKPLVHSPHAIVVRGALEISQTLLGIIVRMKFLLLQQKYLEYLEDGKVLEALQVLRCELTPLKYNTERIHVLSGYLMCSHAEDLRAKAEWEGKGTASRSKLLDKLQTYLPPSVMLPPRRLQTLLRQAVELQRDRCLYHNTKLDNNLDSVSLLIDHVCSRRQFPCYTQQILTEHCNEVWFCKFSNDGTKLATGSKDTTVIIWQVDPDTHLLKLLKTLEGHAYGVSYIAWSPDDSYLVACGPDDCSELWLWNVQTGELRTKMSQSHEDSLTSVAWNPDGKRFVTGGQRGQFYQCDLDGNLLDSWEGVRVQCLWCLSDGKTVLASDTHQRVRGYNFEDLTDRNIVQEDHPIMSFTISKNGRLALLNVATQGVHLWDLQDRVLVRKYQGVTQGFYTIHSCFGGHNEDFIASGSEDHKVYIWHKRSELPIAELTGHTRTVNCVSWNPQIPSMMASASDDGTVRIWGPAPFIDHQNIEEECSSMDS

“muskelin CTLH-CRA domain, C-terminally shortened (205–719, Δ248–624) (from UniProt Q99PV3 205-719) (domain or fragment)” had a stoichiometry N in test [1] of 1.

As for “RanBP10 CTLH-CRA domain (315–608, Δ382–529), wild type F543L; Y548F”, the pKd in test [2] (setting [9]) and in [3] was 6.41 in each case. For the same substance, in [2] (setting [9]), the other: molar ratio n is 0.91. In addition, the other: -TΔS in [2] (setting [10]) was -3.3 kcal/mol. In addition, the dG in [2] (setting [11]) is -8.8 kcal/mol. Also, the other: ΔH in test [2] (setting [12]) is -5.4 kcal/mol.

Turning to “muskelin CTLH-CRA domain (205–735 Δ248–625) (from UniProt Q99PV3 205-735) (domain or fragment)”, the pKd in test [4] is 8.36.

In the case of “Twa1 CTLH-CRA domain (58-190), wild type (from UniProt Q9D7M1) A125G; Q126R; T127del; Q128E; A130Q; M143L; E144Q; L147F; A148S; F152Y”, in test [2] (setting [13]), the pKd was 6.45, the other: molar ratio n was 0.95, the dG was -8.8 kcal/mol and the other: -TΔS stood at 3.4 kcal/mol. Moreover, the other: ΔH in test [2] (setting [13]) was -12 kcal/mol.

For the substance “RanBP10 CTLH-CRA domain Q519G, F543L, Y548F, V556F (quadruple mutant) (from UniProt Q6VN19 315-608) (domain or fragment)”, the stoichiometry N in [5] is 1.

As to “RanBP10 CTLH-CRA domain Q519G (domain or fragment)”, in [6], the pKd was 4.74. Further, the stoichiometry N in test [5] is 1.

Regarding “Twa1 CTLH-CRA domain (58-190), wild type (from UniProt Q9D7M1) A125G; Q126R; T127del; Q128E; A130Q; L140K; M143L; E144Q; L147F; A148S; F152Y; F160V”, in test [2] (setting [13]), the pKd is 6.61, the other: molar ratio n is 1.05, the dG is -9 kcal/mol and the other: -TΔS came out at 4.3 kcal/mol. The other: ΔH in [2] (setting [13]) is -13 kcal/mol.

Turning to “RanBP10 CTLH-CRA domain (315–608, Δ382–529), wild type V556F”, the other: molar ratio n in [2] (setting [9]) came to 0.8. The other: -TΔS in test [2] (setting [10]) turned out to be 5 kcal/mol. Moreover, the dG in test [2] (setting [11]) was -11 kcal/mol. In addition, the other: ΔH in test [2] (setting [12]) was -16 kcal/mol.

In the case of “RanBP10 CTLH-CRA domain (315–608, Δ382–529), wild type F543L”, the pKd in test [2] (setting [9]) and in test [3] was 7.08 in each case. In addition, in [2] (setting [9]), the other: molar ratio n was 0.88. Moreover, in test [2] (setting [10]), the other: -TΔS is -0.7 kcal/mol. In addition, the dG in [2] (setting [11]) was -9.6 kcal/mol. Besides, in test [2] (setting [12]), the other: ΔH was -8.8 kcal/mol.

Turning to “RanBP10 CTLH-CRA domain (315–608, Δ382–529), wild type Y548F; V556F”, in [2] (setting [9]), the pKd was 6.53 and the other: molar ratio n came out at 0.95. Moreover, in test [2] (setting [10]), the other: -TΔS was -0.6 kcal/mol. Further, the dG in test [2] (setting [11]) was -9 kcal/mol. Moreover, the other: ΔH in test [2] (setting [12]) is -8.3 kcal/mol. The pKd in test [3] is 6.53.

For the substance “RanBP10 CTLH-CRA domain (315–608, Δ382–529), wild type Q519G”, in test [2] (setting [9]), the pKd was 8.07 and the other: molar ratio n amounted to 0.93. Besides, the other: -TΔS in test [2] (setting [10]) worked out at 4.1 kcal/mol. The dG in test [2] (setting [11]) was -11 kcal/mol. The other: ΔH in [2] (setting [12]) was -15 kcal/mol.

As to “Twa1 CTLH-CRA domain (58-190), wild type (from UniProt Q9D7M1) A125G; Q126R; T127del; A130Q; L140K; M143L; E144K; L147F; F152Y”, in [2] (setting [13]), the pKd is 6.10, the other: molar ratio n turned out to be 0.94, the dG was -8.3 kcal/mol and the other: -TΔS is -0.4 kcal/mol. Besides, in test [2] (setting [13]), the other: ΔH is -7.9 kcal/mol.

On to “RanBP10 (57–648)-Twa1 (1–228) complex (from UniProt Q9D7M1 1-228)”, for which the figures for the pKd with muskelin (1–735) (rat) and with Wdr26 (102–641) (mouse) were 10.15 and 10.21, respectively.

Consider “muskelin CTLH-CRA domain (205–735 Δ248–625) (from UniProt Q99PV3) F686L”, for which, in test [7], the pKd was 7.25 and the other: molar ratio n was determined as 1.07. Moreover, in [7] (parent: est. 4.1 kcal/mol, read off a plot), the other: -TΔS is -1.6 kcal/mol. Besides, the dG in [7] (parent: est. -11 kcal/mol, read off a plot) was -9.9 kcal/mol. For the same substance, the other: ΔH in test [7] (parent: est. -16 kcal/mol, read off a plot) is -8.2 kcal/mol. Moreover, in test [8], the pKd is 7.25.

For “RanBP10 CTLH-CRA domain (315–608, Δ382–529), wild type Y548F”, in test [2] (setting [9]), the pKd is 7.26 and the other: molar ratio n worked out at 1.06. Moreover, in test [2] (setting [10]), the other: -TΔS worked out at 1.9 kcal/mol. For the same substance, the dG in [2] (setting [11]) is -10 kcal/mol. The other: ΔH in test [2] (setting [12]) was -12 kcal/mol. Moreover, the pKd in test [3] is 7.26.

With “RanBP10 CTLH-CRA domain (315–608, Δ382–529), wild type F543L; V556F”, in test [2] (setting [9]), the pKd was 6.47 and the other: molar ratio n came out at 0.98. Moreover, in [2] (setting [10]), the other: -TΔS was -0.5 kcal/mol. In addition, the dG in test [2] (setting [11]) was -8.9 kcal/mol. In addition, the other: ΔH in test [2] (setting [12]) was -8.4 kcal/mol. The pKd in [3] is 6.47.
